Experiment [1] has as its target EphB4 ectodomain fused to human Fc, carboxy-terminal hexahistidine tag (human). As to the kind of experiment: inhibition of ephrin-B2 AP binding to immobilized EphB4 ectodomain Fc.
For experiment [2] the target is unchanged. Description: inhibition of ephrin-B2 AP binding to immobilized EphB4 ectodomain Fc (FIG. 6B).
Experiment [3] addresses T1, EphB4 ectodomain fused to human Fc, carboxy-terminal hexahistidine tag (human).
T1 chain: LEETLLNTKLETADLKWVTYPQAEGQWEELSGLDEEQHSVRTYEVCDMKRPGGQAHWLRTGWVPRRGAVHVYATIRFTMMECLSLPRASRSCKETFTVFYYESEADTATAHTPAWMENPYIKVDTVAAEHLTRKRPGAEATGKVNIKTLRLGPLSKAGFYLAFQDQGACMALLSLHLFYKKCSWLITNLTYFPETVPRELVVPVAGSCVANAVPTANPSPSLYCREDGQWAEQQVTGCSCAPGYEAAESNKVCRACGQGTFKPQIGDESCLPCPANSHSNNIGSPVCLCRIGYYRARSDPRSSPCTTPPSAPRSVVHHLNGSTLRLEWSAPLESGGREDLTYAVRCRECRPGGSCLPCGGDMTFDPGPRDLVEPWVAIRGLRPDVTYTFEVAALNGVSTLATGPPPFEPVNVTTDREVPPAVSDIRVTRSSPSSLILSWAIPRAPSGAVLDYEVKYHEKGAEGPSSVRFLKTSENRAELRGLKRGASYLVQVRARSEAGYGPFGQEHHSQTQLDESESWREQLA
As to the kind of experiment: inhibition of ephrin-B2 AP binding to immobilized EphB4 ectodomain Fc; biotinylated peptide.

Experiment [4] addresses EphB1 ectodomain fused to human Fc, carboxy-terminal hexahistidine tag (human). As to the kind of experiment: inhibition of ephrin-B2 AP binding to immobilized EphB1 ectodomain Fc; biotinylated peptide.
Experiment [5] addresses T2, endogenous EphB4 of MCF7 human breast cancer cells (human, UniProt P54760 16-987).
T2 construct: whole, on cells; In pull-downs it stood in cell lysates; also called endogenous EphB4 (MCF-7)
T2 sequence (looked up): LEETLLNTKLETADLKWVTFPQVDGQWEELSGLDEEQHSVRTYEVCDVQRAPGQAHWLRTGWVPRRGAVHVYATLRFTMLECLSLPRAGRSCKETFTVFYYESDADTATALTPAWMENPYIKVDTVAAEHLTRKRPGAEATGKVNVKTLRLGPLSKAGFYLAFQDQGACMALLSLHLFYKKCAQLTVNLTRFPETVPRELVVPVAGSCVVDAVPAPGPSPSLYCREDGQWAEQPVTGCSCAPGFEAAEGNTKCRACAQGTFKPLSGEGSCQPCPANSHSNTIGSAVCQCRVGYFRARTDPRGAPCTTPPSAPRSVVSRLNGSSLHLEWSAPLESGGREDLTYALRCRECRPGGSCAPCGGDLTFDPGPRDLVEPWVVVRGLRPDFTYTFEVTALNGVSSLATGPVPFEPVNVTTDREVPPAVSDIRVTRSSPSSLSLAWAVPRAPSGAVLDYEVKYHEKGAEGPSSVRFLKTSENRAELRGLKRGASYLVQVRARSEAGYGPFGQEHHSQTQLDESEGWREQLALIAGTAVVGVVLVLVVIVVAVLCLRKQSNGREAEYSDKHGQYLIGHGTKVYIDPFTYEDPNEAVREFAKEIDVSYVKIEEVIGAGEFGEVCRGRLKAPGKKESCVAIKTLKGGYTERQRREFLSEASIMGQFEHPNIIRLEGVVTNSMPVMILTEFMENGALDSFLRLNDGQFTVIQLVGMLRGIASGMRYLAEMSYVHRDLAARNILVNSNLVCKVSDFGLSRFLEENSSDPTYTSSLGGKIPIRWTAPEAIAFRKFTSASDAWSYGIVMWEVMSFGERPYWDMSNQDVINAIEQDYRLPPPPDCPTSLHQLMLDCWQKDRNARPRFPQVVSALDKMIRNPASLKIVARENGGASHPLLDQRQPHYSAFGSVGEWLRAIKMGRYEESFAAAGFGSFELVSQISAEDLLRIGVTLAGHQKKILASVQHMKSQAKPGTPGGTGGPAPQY
Description: biotinylated TNYL and streptavidin quantum dots, fluorescence microscopy of MCF-7 cells.

The target in experiment [6] is T3, EphB2 ectodomain fused to human Fc, carboxy-terminal hexahistidine tag (human).
T3 chain: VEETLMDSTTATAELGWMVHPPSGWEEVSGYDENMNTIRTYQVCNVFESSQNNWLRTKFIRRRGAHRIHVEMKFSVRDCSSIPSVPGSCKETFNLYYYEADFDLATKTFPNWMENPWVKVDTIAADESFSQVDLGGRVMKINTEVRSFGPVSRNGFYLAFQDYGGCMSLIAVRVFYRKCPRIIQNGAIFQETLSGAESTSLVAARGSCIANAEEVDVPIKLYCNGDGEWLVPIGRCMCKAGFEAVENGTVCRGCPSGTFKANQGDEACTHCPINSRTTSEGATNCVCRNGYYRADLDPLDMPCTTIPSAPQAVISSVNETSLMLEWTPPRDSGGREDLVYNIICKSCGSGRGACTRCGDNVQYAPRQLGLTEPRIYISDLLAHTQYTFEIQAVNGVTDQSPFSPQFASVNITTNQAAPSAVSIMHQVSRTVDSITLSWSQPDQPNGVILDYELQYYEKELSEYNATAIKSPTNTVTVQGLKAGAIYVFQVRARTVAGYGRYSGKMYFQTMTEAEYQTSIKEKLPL
As to the kind of experiment: inhibition of ephrin-B2 AP binding to immobilized EphB2 ectodomain Fc; biotinylated peptide.

In experiment [7] the target is T1, EphB4 ectodomain fused to human Fc, …. As to the kind of experiment: phage ELISA on immobilized EphB Fc. (In general: An ELISA detects its analyte on a solid surface through an enzyme-linked reagent.)
Experiment [8] shares this target. Description: inhibition of ephrin-B2 AP binding to immobilized EphB4 ectodomain Fc (FIG. 6A).
Experiment [9] concerns the target T3, EphB2 ectodomain fused to human Fc, …. As to the kind of experiment: phage ELISA on immobilized EphB Fc.

We go through twelve molecules from patent publication US20060177452A1 (BURNHAM INSTITUTE FOR MEDICAL RESEARCH, published 2006).

No end group written: not given here.

Broadly, the IC50 is the point on the concentration scale where inhibition reaches its midpoint. Low readings indicate higher potency, high ones lower potency. With ephrin-B2 Fc (Fc fusion), the results for the 50% inhibitory concentration (IC50) in experiment [1] and in experiment [2] were 0.009 µM and 9 µM, respectively.

B1: DALN peptide, synthetic, biotinylated (peptide)
peptide: DALNDWLLFRPWGSGS
modifications: also: C-terminal biotin, via GSGSK Lys side chain or biotinyl-ethylenediamine, not settled
Consider B1, for which the half-inhibitory concentration (IC50) in [3] is over 100 µM.

B2: AHTF peptide, synthetic, biotinylated (peptide)
peptide: AHTFPYPHPKPHGSGS
modifications: C-terminal biotin: on the Lys side chain of a GSGSK linker, or N-biotinyl-ethylenediamine after GSGS (which one is not stated)
B2 displayed a concentration for half-maximal inhibition (IC50) in experiment [4] of 150 µM. With TNYLFSPNGPIAGSGS (also: C-terminal biotin on linker (form not given here), also called biotinylated TNYL) [TNYL peptide, synthetic, biotinylated], the binding result in experiment [5] is given as “binds”. Further, the 50% inhibitory concentration (IC50) in experiment [3] was about 50 µM.

B3: WHWT peptide, synthetic, biotinylated (peptide)
peptide: WHWTIEPFAITSGSGS
modifications: C-terminal biotin: on the Lys side chain of a GSGSK linker, or N-biotinyl-ethylenediamine after GSGS (which one is not stated)
Regarding B3, the IC50 in experiment [6] was over 100 µM.

B4: SHWPI peptide, synthetic, biotinylated (peptide)
peptide: SHWPISPYSLLSGSGS
modifications: also: C-terminal biotin, via GSGSK Lys side chain or biotinyl-ethylenediamine, not settled
In experiment [6], B4 had a concentration for half-maximal inhibition (IC50) of over 100 µM.

B5: DHWRI peptide, synthetic, biotinylated (peptide)
peptide: DHWRILPFSLSSGSGS
modifications: also: C-terminal biotin, via GSGSK Lys side chain or biotinyl-ethylenediamine, not settled
In experiment [6], B5 yielded a 50% inhibitory concentration (IC50) of over 100 µM. As for SGHQLLNKMPN (coat-protein fusion not described), the “% Binding” value in experiment [7] came out at 100%.

B6: DHNH peptide, synthetic, biotinylated (peptide)
peptide: DHNHNLYNPWRLGSGS
modifications: also: C-terminal biotin, via GSGSK Lys side chain or biotinyl-ethylenediamine, not settled
Molecule B6 had an IC50 in experiment [3] of about 200 µM. Consider TNYLFSPNGPIARAW [TNYL-RAW peptide, non-biotinylated], for which, in [8], the half-inhibitory concentration (IC50) was about 0.015 µM and the “fold lower IC50 than non-biotinylated TNYL” value is 10000 fold. In turn, NPVIGPIQRAWTGSGS (also: C-terminal biotin on linker (form not given here)) [NPVI peptide, synthetic, biotinylated] yielded a concentration for half-maximal inhibition (IC50) in [3] of over 500 µM. On to LPHGPVAAWDA (coat-protein fusion not described), for which the “% Binding” value in experiment [9] turned out to be 15%; in experiment [7] it was 100%.
